Assay results from publication PMC1933581.

How the values were obtained:
[1] = system: Rev (D36) (HIV-1, SBBC subject D36); assay: EMSA; conditions: 10 mM HEPES/KOH pH 7.6, 150 mM KCl, 2 mM MgCl2, 0.5 mM EGTA, 1 mM DTT, 20% glycerol, 3.2 ug E. coli tRNA in 10 ul; excess RNA, protein 0-0.50 uM; 10 min on …
[2] = system: Rev (C64) (HIV-1, SBBC subject C64); assay: EMSA; conditions: 10 mM HEPES/KOH pH 7.6, 150 mM KCl, 2 mM MgCl2, 0.5 mM EGTA, 1 mM DTT, 20% glycerol, 3.2 ug E. coli tRNA in 10 ul; excess RNA, protein 0-0.50 uM; 10 min on …

RRE riboprobe
binding signal (% reduction vs NL4-3 Rev) [1]: 90
binding signal (% reduction vs NL4-3 Rev) [2]: 90
